How the values were obtained:
Assay type in all cases: cell-based, human
[1] = test system: patient-derived organoids (PDOs); test: Patient-derived organoid CellTiter-Glo cell viability; settings: Homo sapiens, 72 h; read-out: reduction in cell viability
Experimental: Patient-derived organoids (PDOs). Tumor tissues were minced on ice into 1 mm^3 small pieces. Tumor pieces (˜20 μl in volume) were resuspended in 200 μl Matrigel and seeded into 24 well plates for 15 min until gel solidify, followed by culture in advanced DMEM/F12 medium supplemented with B27 and N2 (Thermo Fisher Scientific), 0.01% BSA (Roche), 100 units/m penicillin-streptomycin (Thermo Fisher Scientific), and others (Table 4) for 4-8 weeks to grow organoids. […] The CellTiter-Glo Luminescent Cell Viability assay was used to determine drug responsiveness.

[2] = test system: PMA-stimulated U937; test: Immunofluorescence of IL-11 treated U937; settings: 25 ng/ml, 72 hr
Experimental: Immunofluorescence. PMA-stimulated U937 were cultured and treated with 25 ng/ml IL-11 over 72 hr. Cells were then fixed with 4% paraformaldehyde for 15 minutes. After fixation, cells were incubated with fluorescence conjugated primary antibody (CD14, CD86 and CD163) for 1 hour. Slides were mounted with mounting medium with DAPI and the images were taken with fluorescence microscope.

[3] = test system: PMA-stimulated U937 and THP-1; test: Western blot of IL-11 treated macrophages; settings: serial dosages, 72 hr
Experimental: Western blot analysis. PMA-stimulated U937 and THP-1 were cultured and treated with serial dosages of IL-11 over 72 hr. Cell lysates were harvested using RIPA buffer. The concentration of protein lysates was determined by Pierce™ BCA Protein Assay Kit (Thermo fisher). Forty micrograms of the total protein extracts were separated by NuPAGE™ 4-12% Bis-Tris Protein Gels (Thermo fisher) and transferred to PVDF membrane. The membranes were then blocked with 5% of Blotting-Grade Blocker (BioRad) in TBST and probed using primary antibodies against pSTAT3, STAT3 and GAPDH (Cell Signaling Technology; 2118S). Membranes were incubated in HRP-linked secondary antibodies following dilution with TBST (1:5000) at room temperature for one hour. Blots were developed using Western Lightning Plus-ECL Chemiluminescent Reagents (Perkin Elmer, Waltham, Mass.) and Syngene G:BOX Imaging System.

Molecule	cytotoxicity at 15 µM [1]	CD163 (immunofluorescence) [2]	pSTAT3 (western blot) [3]
N#CC[C@H](C1CCCC1)n1cc(-c2ncnc3[nH]ccc23)cn1 [ruxolitinib]	10 to 20%		
IL-11: cytokine, a member of the IL-6 cytokine family, used to treat PMA-stimulated U937 and THP-1 macrophages (protein, UniProt P20809 22-199, looked up) Interleukin-11: PGPPPGPPRVSPDPRAELDSTVLLTRSLLADTRQLAAQLRDKFPADGDHNLDSLPTLAMSAGALGALQLPGVLTRLRADLLSYLRHVQWLRRAGGSSLKTLEPELGTLQARLDRLLRRLQLLMSRLALPQPPPDPPAPPLAPPSSAWGGIRAAHAILGGLHLTLDWAVRGLLLLKTRL		up-regulated	up-regulated

Reference: US20220308062A1, “METHODS FOR PREDICTING DRUG RESPONSIVENESS IN SAMPLES FROM CANCER SUBJECTS” (Board of Regents, The University of Texas System, priority 2019, published 2022)
